Molecular target: purified bovine aggrecan monomers isolated from bovine nasal cartilage, P13608
Sequence (P13608 17-2364): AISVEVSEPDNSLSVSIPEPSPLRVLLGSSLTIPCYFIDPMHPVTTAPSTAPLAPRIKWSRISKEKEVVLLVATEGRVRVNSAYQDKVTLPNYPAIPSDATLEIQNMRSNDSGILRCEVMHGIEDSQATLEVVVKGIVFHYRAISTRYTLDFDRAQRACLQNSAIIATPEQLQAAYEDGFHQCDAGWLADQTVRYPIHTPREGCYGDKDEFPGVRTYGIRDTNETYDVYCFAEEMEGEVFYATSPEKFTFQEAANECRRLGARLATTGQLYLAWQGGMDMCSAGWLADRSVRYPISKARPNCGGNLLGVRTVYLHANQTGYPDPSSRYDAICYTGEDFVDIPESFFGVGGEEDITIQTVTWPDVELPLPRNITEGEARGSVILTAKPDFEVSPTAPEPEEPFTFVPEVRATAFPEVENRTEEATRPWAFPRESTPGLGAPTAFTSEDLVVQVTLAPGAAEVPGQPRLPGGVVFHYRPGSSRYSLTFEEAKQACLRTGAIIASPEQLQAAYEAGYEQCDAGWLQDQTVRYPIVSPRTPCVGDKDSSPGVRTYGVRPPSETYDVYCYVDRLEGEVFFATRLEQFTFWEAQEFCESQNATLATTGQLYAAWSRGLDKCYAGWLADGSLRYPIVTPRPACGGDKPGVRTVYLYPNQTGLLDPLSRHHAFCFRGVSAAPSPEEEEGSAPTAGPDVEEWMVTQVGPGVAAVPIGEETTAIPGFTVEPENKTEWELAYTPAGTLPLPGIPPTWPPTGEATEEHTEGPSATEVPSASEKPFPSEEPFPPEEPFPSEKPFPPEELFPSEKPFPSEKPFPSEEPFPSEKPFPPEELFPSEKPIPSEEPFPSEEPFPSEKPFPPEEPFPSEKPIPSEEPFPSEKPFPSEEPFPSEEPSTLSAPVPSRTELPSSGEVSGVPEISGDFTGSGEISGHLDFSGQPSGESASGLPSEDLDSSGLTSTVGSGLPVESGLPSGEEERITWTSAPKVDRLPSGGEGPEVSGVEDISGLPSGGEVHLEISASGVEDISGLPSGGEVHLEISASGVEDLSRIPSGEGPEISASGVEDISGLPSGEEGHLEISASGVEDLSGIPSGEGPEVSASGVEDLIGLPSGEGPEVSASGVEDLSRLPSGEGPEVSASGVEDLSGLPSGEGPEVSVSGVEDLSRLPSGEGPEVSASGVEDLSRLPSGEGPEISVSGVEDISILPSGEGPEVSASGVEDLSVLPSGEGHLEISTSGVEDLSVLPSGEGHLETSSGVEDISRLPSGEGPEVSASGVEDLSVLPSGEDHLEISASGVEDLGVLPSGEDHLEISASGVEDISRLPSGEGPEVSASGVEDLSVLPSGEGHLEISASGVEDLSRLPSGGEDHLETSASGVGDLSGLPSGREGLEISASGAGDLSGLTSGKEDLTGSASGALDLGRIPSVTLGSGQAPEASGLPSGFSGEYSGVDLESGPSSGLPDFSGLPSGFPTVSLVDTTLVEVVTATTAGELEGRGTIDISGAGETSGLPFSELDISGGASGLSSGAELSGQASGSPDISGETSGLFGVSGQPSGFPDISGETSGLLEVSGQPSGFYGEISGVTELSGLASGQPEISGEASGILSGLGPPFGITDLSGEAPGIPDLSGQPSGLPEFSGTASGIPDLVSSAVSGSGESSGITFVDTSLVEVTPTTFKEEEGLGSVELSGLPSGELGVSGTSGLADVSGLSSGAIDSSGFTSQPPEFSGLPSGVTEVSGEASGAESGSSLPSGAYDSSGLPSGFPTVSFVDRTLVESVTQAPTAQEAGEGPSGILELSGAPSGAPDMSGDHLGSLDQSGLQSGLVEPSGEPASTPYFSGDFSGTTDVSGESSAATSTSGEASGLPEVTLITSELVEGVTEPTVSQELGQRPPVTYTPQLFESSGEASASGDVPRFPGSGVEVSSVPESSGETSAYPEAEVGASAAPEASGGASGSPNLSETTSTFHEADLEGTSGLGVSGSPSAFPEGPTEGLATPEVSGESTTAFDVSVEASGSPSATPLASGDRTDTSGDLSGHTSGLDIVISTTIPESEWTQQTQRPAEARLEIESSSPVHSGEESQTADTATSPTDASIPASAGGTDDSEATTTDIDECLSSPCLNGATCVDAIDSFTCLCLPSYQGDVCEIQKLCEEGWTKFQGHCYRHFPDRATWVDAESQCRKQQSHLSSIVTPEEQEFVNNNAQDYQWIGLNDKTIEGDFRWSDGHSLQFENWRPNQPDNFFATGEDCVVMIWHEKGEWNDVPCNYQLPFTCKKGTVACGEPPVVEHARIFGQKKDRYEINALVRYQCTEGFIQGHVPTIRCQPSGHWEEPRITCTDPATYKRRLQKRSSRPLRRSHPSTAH

B1: ADMP-1 (aggrecan degrading metallo protease 1), 67 kDa active form purified from conditioned media of IL-1-stimulated bovine nasal cartilage (protein)
chain: FASLSRFVETLVVADDKMAAFHGAGLKRYLLTVMAAAAKAFKHPSIRNPVSLVVTRLVVLGPGEEGPQVGPSAAQTLRSFCAWQRGLNTPDDADPGHFDTAILFTRQDLCGVSTCDTLGMADVGTVCDPARSCAIVEDDGLQSAFTAAHELGHVFSMLHDNSKQCTGLNGPESTSRHVMAPVMAHVDPEEPWSPCSARFITDFLDNGFGHCLLDKPEAPLHLPVTFPGKDYDADRQCQLTFGPDSRHCPQLPPPCAALWCSGHLNGHAMCQTKHSPWADGTPCGPAQACMGGRCLHVDQLQAFNVPQAGGWGPWGSWGDCSRSCGGGVQFSSRDCTRPVPRNGGKYCEGRRTRFRSCNTQDCPTGSALTFREEQCAAYNHRTDLFKNFPGPMDWVPRYTGVAPRDQCKLTCQTRALGYYYVLDPRVADGTPCSPDSSSVCVQGRCIHAGCDRVIGSKKKFDKCMVCGGDGSSCSKQSGSFKKFRYGYNNVVTIPAGATHILVRQQGSPSVRSLYLALKLPDGSYALNGEYTLIPSPTDVVLPGAVSLRYSGATAASETLSGHGPLAEPLTLQVLVAGNPQNARLRYSFFVPRPRPVPSTPRPTPQDWLRRKSQILEILRRRSWAGRK
ADMP activity (incubation with aggrecan substrate, products monitored with the BC-3 antibody): The region of the gel containing the 67 kDa ADMP-1 protein exhibited activity while that of the control portion of the gel did not
cleavage of aggrecan at Glu373-Ala374, detected as BC-3-reactive fragments (Western blot): Incubation of the GuHCl-eluted ADMP-1 with isolated bovine aggrecan produced a pattern of BC-3-reactive fragments similar to that produced upon cleavage of cartilage aggrecan by endogenous aggrecanase
